Legend:
LM2 cells = experiment: LM2 orthotopic tumors, single or combined agent treatment; type: in vivo, NSG female mice
Description: FIG. 17A is an image of WB analyses where NSG female mice were injected with 10^4 LM2 cells by MFP injection, and intravenously treated with the indicated reagents twice per week when tumors reached to 2 mm in dimeter, then after 5 weeks of the treatments, the primary tumors of each group were collected and activation of EGFR and FAK in primary tumor of each group were tested by WB.
FIG. 17B is a graph illustrating tumor volumes of each treatment group from FIG. 17A.
FIG. 17C is a graph, quantifying ex vivo BLI results where lungs in mice from FIG. 17A were collected and spontaneous metastasis was examined at the endpoint.
Two molecular targeting reagents, ATN-161 (ATN) and Erlotinib (Erlo) were employed. ATN is an integrin α5β1 antagonist that inhibits the integrin signaling pathway and slows tumor progression. Erlotinib is a well-established small molecular inhibitor of EGFR and is clinically approved for cancer treatment. Mice orthotopically implanted with LM2 cells were split into 6 groups after the tumors reached 2 mm in diameter and subjected to various single or combined agent treatments twice per week [(1) PBS; (2) ATN 30 μg/mouse; (3) Erlo 100 mg/kg; (4) r-Tinagl1 30 μg/mouse; (5) ATN and Erlo; and (6) ATN, Erlo, and r-Tinagl1]. Referring to FIG. 17A, the inhibition of integrin/FAK and EGFR upon each treatment was validated by western blotting and TIC staining.
(§1) For xenograft studies, 8-weeks immunocompromised NOD Scid Gamma (NSG) or immunocompetent FVB females were used. Cells were suspended in 10 μl of PBS for mammary gland injection (MFP), or were suspended in 100 μl of PBS for intravenous injection. For human patient-derived xenograft (PDX, HCL001, kindly provided by Dr. Alana Welm) study, we followed the standard protocol for PDX transplantation, maintenance and digestion of the tumors (DeRose et al., 2011). 2×10^4 cells were suspended in 10 μl of PBS and subjected to MFP injection. For recombinant Tinagl1 (r-Tinagl1), ATN-161, Erlotinib treatments, the mice were injected with 30 μg/mouse, 30 μg/mouse, and 100 mg/kg respectively twice per week via tail-vein. Primary tumors were quantified once per week via caliper measurement. All cell lines used for lung metastasis experiments were stably labeled with a firefly luciferase expressing vector and were monitored by weekly bioluminescent imaging (BLI). At protocol-defined endpoints, lungs were dissected and fixed in bouin's solution and the metastatic lesions were counted.

EGFR = EGFR (Homo sapiens, UniProt P00533); experiment: EGF-induced EGFR activation in LM2 cells (WB); type: cell-based; conditions: 1 hour pre-treatment, then EGF 10 min
Description: FIG. 11A is an image of WB analyses where LM2 cells with or without 1 hour pre-treatment of the indicated amount of r-Tinagl1 were then treated with indicated amount of EGF for another 10 min, then lysed.
(§2) For WB analysis, cells were collected and lysed with IP lysis buffer described above. After boiled with SDS laemmli buffer, the samples were resolved with SDS-PAGE gel and immunoblotted with standard protocols.
Cells were treated with r-Tinagl1 and the activity of EGFR and integrin/FAK signaling pathways was evaluated. To test EGFR activation, the LM2 cells were subjected to EGF, r-Tinagl1, or EGF/r-Tinagl1 combined treatment. […] Referring to FIGS. 11B and 11C, EGF-dependent activation of EGFR was similarly attenuated in cells expressing Tinagl1 compared to control cells.

SUM159-M1a cells = experiment: Cell adhesion assay of SUM159-M1a cells on coated plates (luciferase); type: cell-based, human
Description: FIG. 15A is an graph of attached cells quantified by luciferase assay where a 96-well plate was first coated with 10 μg/ml of FN, then SUM159-M1a cells were incubated with 10 μg/ml of indicated antibodies or r-Tinagl1 at 4 C for 30 min, after when cells were seeded on the plate at 30 k cells per well, and 30 min after seeding, the plate was washed with PBS and quantified by luciferase assay.
Integrin α5β1 and αvβ1 are the major receptors for FN, and the interaction between FN and the integrin receptors triggers the activation of the downstream FAK signal pathway. To test whether Tinagl1 may interfere with cell adhesion mediated by the interaction between FN and its receptors integrin α5β1 and αvβ1, SUM159-M1a cells that were pre-incubated with r-Tinagl1 were seeded on the plates coated with FN or other ECM proteins for various period of time (5 min to 2 hours) and the number of adhered cells were quantified after washing. […] Next, SUM159-M1a cells that were pre-incubated with r-Tiangl1 or various integrin-blocking antibodies were seeded on the plate coated with FN, and relative numbers of attached cells were measured.
96-wells were coated with 10 μg/ml of indicated proteins. […] Cells were then lysed, and luciferase activity which represents cell number was measured using the Glomax 96 microplate luminometer (Promega). […]

[1] = test system: orthotopically implanted mammary tumors; experiment: r-Tinagl1 treatment of orthotopically implanted mammary tumors; type: in vivo, mice; conditions: continuous treatment of r-Tinagl1 for 7 weeks
Text: To test if recombinant Tinagl1 protein (r-Tiangl1) treatment would slow tumor progression, full length recombinant human Tinagl1 with 6×His tag at the C-terminus (r-Tinagl1) was expressed in HEK293T cells and r-Tinagl1 was purified from the culture media using Ni^2+-NTA purification system. r-Tinagl1 was used to treat orthotopically implanted mammary tumors.
as §1, with “For recombinant Tinagl1 (r-Tinagl1), ATN-161, Erlotinib treatments, the mice were injected with 30 μg/mouse, 30 μg/mouse, and 100 mg/kg respectively twice per week via tail-vein.” left out

FAK = experiment: FN- or EGF-dependent FAK phosphorylation (WB); type: cell-based; conditions: tested at 10, 100, 1000 and 10,000 ng/mL
Text: as §2
FN is the major ligand for integrin α5β1 and αvβ1, and triggers integrin/FAK signal pathway after binding. FN was employed to evaluate the effects of Tinagl1 on the integrin/FAK pathway. […] Likewise, the activation of FAK by FN was attenuated in the cells overexpressing Tinagl1.

B1: r-Tinagl1: full length recombinant human Tinagl1 with 6×His tag at the C-terminus [SEQ ID NO.: 24], expressed in HEK293T cells (protein, listed as Homo sapiens)
chain: MWRCPLGLLLLLPLAGHLALGAQQGRGRRELAPGLHLRGIRDAGGRYCQEQDLCCRGRADDCALPYLGAICYCDLFCNRTVSDCCPDFWDFCLGVPPPFPPIQGCMHGGRIYPVLGTYWDNCNRCTCQENRQWQCDQEPCLVDPDMIKAINQGNYGWQAGNHSAFWGMTLDEGIRYRLGTIRPSSSVMNMHEIYTVLNPGEVLPTAFEASEKWPNLIHEPLDQGNCAGSWAFSTAAVASDRVSIHSLGHMTPVLSPQNLLSCDTHQQQGCRGGRLDGAWWFLRRRGVVSDHCYPFSGRERDEAGPAPPCMMHSRAMGRGKRQATAHCPNSYVNNNDIYQVTPVYRLGSNDKEIMKELMENGPVQALMEVHEDFFLYKGGIYSHTPVSLGRPERYRRHGTHSVKITGWGEETLPDGRTLKYWTAANSWGPAWGERGHFRIVRGVNECDIESFVLGVWGRVGMEDMGHHVDHHHHHH
modifications: C-terminal 6xHis tag
primary tumor growth (LM2 cells; LM2, twice per week, ATN 30 μg/mouse, Erlo 100 mg/kg, r-Tinagl1 30 μg/mouse): significantly suppressed primary tumor growth | spontaneous lung metastasis (LM2 cells; LM2 tumors, ex vivo BLI at endpoint): reduced spontaneous lung metastasis | EGF-induced EGFR activation (EGFR): dramatically attenuated | cell adhesion on FN or other ECM proteins (SUM159-M1a cells; 10 μg/ml r-Tinagl1 pre-incubation, 5 min to 2 hours): blocked cell adhesion mediated by FN but not other ECM proteins | cell adhesion on FN (antibody blocking assay) (SUM159-M1a cells; 10 μg/ml, 30 min after seeding): significantly reduced cell adhesion | primary tumor growth [1]: significantly inhibited | spontaneous lung metastasis [1]: significantly inhibited | FN-dependent activation of FAK signaling (FAK phosphorylation at Tyr397) (FAK): significantly reduced FN-dependent activation of FAK signaling
